{
  "source": "paper PMC10409785",
  "about": "(Nature Communications, 2023)",
  "binders": {"B1": {"name": "UBE2L6 (C98S/C102S/L121K) (enzyme, human)", "chain": "MASMRVVKELEDLQKKPPPYLRNLSSDDANVLVWHALLLPDQPPYHLKAFNLRISFPPEYPFKPPMIKFTTKIYHPNVDENGQICLPIISSENWKPSTKTSQVLEALNVLVNRPNIREPKRMDLADLLTQNPELFRKNAEEFTLRFGVDRPS", "modifications": "Lys121 (L121K) isopeptide-linked to Gly157 of ISG15 C76S; Cys86 activated with Aldrithiol-4 and crosslinked to Uba7 Cys599", "notes": "The 6XHis-tag was cleaved with TEV protease 'when required'; source: E. coli BL21 codon plus, purified (Ni-NTA, Superdex 75, Enrich Q)"}},
  "biological_target": "T1, human Uba7 (human, UniProt P41226 1-1012, Cys599 crosslinked to UBE2L6 Cys86 (in the cryo-EM complexes only))",
  "T1 construct": "also called hUba7; E1; source: E. coli BL21 codon plus or Hi5 insect cells (baculovirus), purified (Ni-NTA, Superdex 200, Enrich Q); not shown: His6 (insect cell construct), N-terminal, cleaved",
  "T1 sequence": "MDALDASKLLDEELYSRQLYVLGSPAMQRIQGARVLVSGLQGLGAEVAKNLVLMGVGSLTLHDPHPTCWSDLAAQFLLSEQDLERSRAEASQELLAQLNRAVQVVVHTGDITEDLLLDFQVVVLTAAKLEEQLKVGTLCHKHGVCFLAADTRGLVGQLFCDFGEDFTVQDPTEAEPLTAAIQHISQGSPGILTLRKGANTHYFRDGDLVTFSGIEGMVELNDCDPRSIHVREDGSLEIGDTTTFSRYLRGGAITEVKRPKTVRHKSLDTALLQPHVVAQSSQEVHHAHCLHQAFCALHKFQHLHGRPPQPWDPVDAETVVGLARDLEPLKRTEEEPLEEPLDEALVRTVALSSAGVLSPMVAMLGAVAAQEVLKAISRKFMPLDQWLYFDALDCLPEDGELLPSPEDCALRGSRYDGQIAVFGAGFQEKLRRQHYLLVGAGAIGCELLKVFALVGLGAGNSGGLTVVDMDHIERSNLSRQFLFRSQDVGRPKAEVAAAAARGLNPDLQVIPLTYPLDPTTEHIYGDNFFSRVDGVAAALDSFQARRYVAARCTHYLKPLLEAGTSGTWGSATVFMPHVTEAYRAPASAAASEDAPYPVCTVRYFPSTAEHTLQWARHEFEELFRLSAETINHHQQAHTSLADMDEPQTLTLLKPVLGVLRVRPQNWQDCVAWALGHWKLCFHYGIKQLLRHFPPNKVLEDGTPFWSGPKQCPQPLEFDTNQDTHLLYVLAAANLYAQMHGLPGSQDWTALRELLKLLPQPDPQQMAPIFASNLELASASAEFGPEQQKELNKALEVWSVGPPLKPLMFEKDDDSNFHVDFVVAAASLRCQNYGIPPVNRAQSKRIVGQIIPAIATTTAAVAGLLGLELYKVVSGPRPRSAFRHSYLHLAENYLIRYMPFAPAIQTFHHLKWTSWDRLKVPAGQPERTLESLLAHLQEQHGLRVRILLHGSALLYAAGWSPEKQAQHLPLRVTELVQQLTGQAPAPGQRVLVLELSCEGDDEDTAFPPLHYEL",
  "experiment": "cryo-EM structure; double-loaded Uba7-UBE2L6-ISG15(t)/ISG15(a) mimetic: ISG15 C76S isopeptide-linked to UBE2L6 L121K, UBE2L6 Cys86 (Aldrithiol-4 activated) crosslinked to Uba7 Cys599, then 1.2 molar excess of ISG15, ATP and Mg2+ for 30 min at 4 °C; frozen at 3.0 mg/ml",
  "details": "both partners purified",
  "data": [
    {"binder": "B1", "values": [
      {"measurement": "binding result", "result": "binds"}
    ]}
  ]
}
